Molecular target: PDGF receptor PDGFRβ on the surface of 293-SL/PR cells (transformed 293T cell line)
Assay: cell-based or functional assay

bioactivity by luciferase assay in 293-SL/PR reporter cells; PDGF at 30 ng/mL lyophilized with 3 mg/mL collagen (experimental group): 310000 RLU/sec
bioactivity by luciferase assay in 293-SL/PR reporter cells; PDGF solution (control group) at 120 ng/mL: 340000 RLU/sec
Substance: recombinant human PDGF B (rhPDGF B) (from UniProt P01127 82-190) (ligand)
